Changes are numbered by the printed parent chain. Numbers in names are those of the source.
Target: Human Factor B (human) (UniProt P00751)
Assay: cell-based or functional assay

Sequence of Human Factor B (human) (P00751 26-764 limits assumed): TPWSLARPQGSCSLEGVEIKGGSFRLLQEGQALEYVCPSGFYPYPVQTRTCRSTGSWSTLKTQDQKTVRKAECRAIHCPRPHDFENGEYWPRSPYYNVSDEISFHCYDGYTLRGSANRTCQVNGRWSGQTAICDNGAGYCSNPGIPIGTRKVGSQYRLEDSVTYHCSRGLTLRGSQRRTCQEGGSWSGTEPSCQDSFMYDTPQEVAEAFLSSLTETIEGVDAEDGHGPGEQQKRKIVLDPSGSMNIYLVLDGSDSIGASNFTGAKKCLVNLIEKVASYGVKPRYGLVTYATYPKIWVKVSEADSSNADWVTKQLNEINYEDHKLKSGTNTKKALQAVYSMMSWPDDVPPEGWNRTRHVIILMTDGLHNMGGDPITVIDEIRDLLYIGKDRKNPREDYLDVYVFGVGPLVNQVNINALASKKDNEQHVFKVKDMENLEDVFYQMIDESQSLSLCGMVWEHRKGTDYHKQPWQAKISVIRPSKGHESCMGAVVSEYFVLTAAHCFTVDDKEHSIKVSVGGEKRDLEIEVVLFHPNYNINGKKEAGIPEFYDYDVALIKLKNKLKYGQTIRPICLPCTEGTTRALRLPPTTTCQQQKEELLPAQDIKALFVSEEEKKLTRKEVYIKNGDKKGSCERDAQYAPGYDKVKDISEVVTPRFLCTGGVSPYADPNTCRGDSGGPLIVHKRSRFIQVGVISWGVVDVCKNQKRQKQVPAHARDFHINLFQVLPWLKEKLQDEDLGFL

B1: chymase C22S/L99R/F173L/K192R/Y215H/R217T/S218V/A226R (enzyme)
chain: IIGGTESKPHSRPYMAYLEIVTSNGPSKFCGGFLIRRNFVLTAAHCAGRSITVTLGAHNITEEEDTWQKLEVIKQFRHPKYNTSTRHHDIMLLKLKEKASLTLAVGTLPFPSQFNFVPPGRMCRVAGWGRTGVLKPGSDTLQEVKLRLMDPQACSHLRDFDHNLQLCVGNPRKTKSAFRGDSGGPLLCAGVAQGIVSHGTVDAKPPRVFTRISHYRPWINQILQAN
B1 gave a fB Cleavage EC50 of 7770 nM, a fB Cleavage, 64% A2M-depl plasma EC50 of 2290 nM and a fB Cleavage, 64% plasma EC50 of 4380 nM. It also gave a fB Cleavage, 80% plasma EC50 of 7590 nM.

B2: chymase C22S/K40M/F41V/G151R/K192R/A226R (enzyme)
chain: B1 chain with K28M, F29V, R86L, G137R, L157F, H198Y, T200R, V201S
For B2, the fB Cleavage EC50 was 7770 nM.

B3: chymase C22S/L99W/F173K/K192R/R217S/S218V/A226R (enzyme)
chain: B1 chain with R86W, L157K, H198Y, T200S
In the case of B3, the fB Cleavage EC50 is reported as 2490 nM.

B4: chymase C22S/L99Y/F173L/K192R/Y215H/R217T/S218V/A226R (enzyme)
chain: B1 chain with R86Y
Work on B4 yielded a fB Cleavage, 64% A2M-depl plasma EC50 of 4580 nM and a fB Cleavage, 64% plasma EC50 of 12400 nM.

B5: chymase C22S/K40L/F41V/G151R/K192R/A226R (enzyme)
chain: B1 chain with K28L, F29V, R86L, G137R, L157F, H198Y, T200R, V201S
With B5 the fB Cleavage EC50 was 7500 nM.

B6: chymase C22S/K40M/F41V/K192R/A226R (enzyme)
chain: B1 chain with K28M, F29V, R86L, L157F, H198Y, T200R, V201S
Binder B6 has a fB Cleavage EC50 of 7770 nM.

B7: chymase C22S/F41I/L99H/G151K/F173Y/Y215K/R217G/A226R (enzyme)
chain: B1 chain with F29I, R86H, G137K, L157Y, R179K, H198K, T200G, V201S
In the case of B7, the fB Cleavage EC50 is reported as 7770 nM.

B8: chymase C22S/F41K/L99H/G151A/F173Y/Y215K/R217S/A226R (enzyme)
chain: B1 chain with F29K, R86H, G137A, L157Y, R179K, H198K, T200S, V201S
In the case of B8, the fB Cleavage EC50 is reported as 1310 nM, the fB Cleavage, 64% A2M-depl plasma EC50 is reported as 5750 nM and the fB Cleavage, 64% plasma EC50 is reported as 5690 nM. For the same binder, the fB Cleavage, 80% plasma EC50 was 18600 nM.

B9: chymase C22S/L99H/F173Y/K192R/Y215K/R217S/S218V/A226R (enzyme)
chain: B1 chain with R86H, L157Y, H198K, T200S
Binder B9 has a fB Cleavage EC50 of 3460 nM.

B10: chymase C22S/F41V/L99H/G151R/F173S/Y215K/A226R (enzyme)
chain: B1 chain with F29V, R86H, G137R, L157S, R179K, H198K, T200R, V201S
For B10, the fB Cleavage EC50 was 4780 nM.

B11: chymase C22S/L99F/F173K/K192R/R217S/S218I/A226R (enzyme)
chain: B1 chain with R86F, L157K, H198Y, T200S, V201I
Work on B11 yielded a fB Cleavage EC50 of 4000 nM.

B12: chymase C22S/L99W/F173K/R217S/S218R/A226R (enzyme)
chain: B1 chain with R86W, L157K, R179K, H198Y, T200S, V201R
Binder B12 has a fB Cleavage EC50 of 2660 nM.

B13: chymase C22S/P38Q/K40L/F41R/L99N/V138I/F173Y/D175T/A190S/V213A/S218V/A226R (enzyme)
chain: IIGGTESKPHSRPYMAYLEIVTSNGQSLRCGGFLIRRNFVLTAAHCAGRSITVTLGAHNITEEEDTWQKLEVIKQFRHPKYNTSTNHHDIMLLKLKEKASLTLAVGTLPFPSQFNFVPPGRMCRIAGWGRTGVLKPGSDTLQEVKLRLMDPQACSHYRTFDHNLQLCVGNPRKTKSSFKGDSGGPLLCAGVAQGIASYGRVDAKPPRVFTRISHYRPWINQILQAN
In the case of B13, the fB Cleavage EC50 is reported as 57.6 nM.

B14: chymase C22S/P38Q/K40M/F41H/L99H/V138I/D175S/A190S/V213A/S218V/A226R (enzyme)
chain: B13 chain with L28M, R29H, N86H, Y157F, T159S
Binder B14 has a fB Cleavage EC50 of 277 nM.

B15: chymase C22S/P38Q/K40M/F41R/V138I/F173L/D175R/A190S/V213A/S218T/A226R (enzyme)
chain: B13 chain with L28M, N86L, Y157L, T159R, V201T
B15 was tested, and the fB Cleavage EC50 was 51 nM.

B16: chymase C22S/P38Q/K40A/F41R/V138I/F173L/D175R/A190S/V213A/S218L/A226R (enzyme)
chain: B13 chain with L28A, N86L, Y157L, T159R, V201L
With B16 the fB Cleavage EC50 was 283 nM.

B17: chymase C22S/P38Q/K40L/F41R/L99Q/V138I/F173Y/D175N/A190S/V213A/S218V/A226R (enzyme)
chain: B13 chain with N86Q, T159N
Binder B17 has a fB Cleavage EC50 of 102 nM.

B18: chymase C22S/K40L/F41A/K192R/A226R (enzyme)
chain: B1 chain with K28L, F29A, R86L, L157F, H198Y, T200R, V201S
B18 showed a fB Cleavage EC50 of 7390 nM.

B19: chymase C22S/P38Q/K40L/F41R/V138I/F173Y/D175H/A190S/V213A/S218T/A226R (enzyme)
chain: B13 chain with N86L, T159H, V201T
B19 gave a fB Cleavage EC50 of 121 nM.

B20: chymase C22S/P38Q/K40M/F41R/L99Y/V138I/F173L/D175Q/A190S/V213A/S218T/A226R (enzyme)
chain: B13 chain with L28M, N86Y, Y157L, T159Q, V201T
Binder B20 has a fB Cleavage EC50 of 1650 nM.

B21: chymase C22S/P38Q/K40V/F41R/V138I/F173S/D175N/A190S/V213A/S218I/A226R (enzyme)
chain: B13 chain with L28V, N86L, Y157S, T159N, V201I
Work on B21 yielded a fB Cleavage EC50 of 717 nM.

B22: chymase C22S/P38Q/K40M/F41T/V138I/D175R/A190S/V213A/S218I/A226R (enzyme)
chain: B13 chain with L28M, R29T, N86L, Y157F, T159R, V201I
B22 was tested, and the fB Cleavage EC50 was 218 nM.

B23: chymase C22S/P38Q/K40L/F41R/V138I/F173Y/D175R/A190S/V213A/S218T/A226R (enzyme)
chain: B13 chain with N86L, T159R, V201T
Work on B23 yielded a fB Cleavage EC50 of 223 nM.

B24: chymase C22S/P38Q/K40M/F41R/V138I/F173L/D175N/A190S/V213A/S218L/A226R (enzyme)
chain: B13 chain with L28M, N86L, Y157L, T159N, V201L
Work on B24 yielded a fB Cleavage EC50 of 482 nM.

B25: chymase C22S/P38Q/K40M/F41R/L99S/V138I/F173Y/D175N/A190S/V213A/S218V/A226R (enzyme)
chain: B13 chain with L28M, N86S, T159N
Binder B25 has a fB Cleavage EC50 of 472 nM.

B26: chymase C22S/P38Q/K40Q/F41R/V138I/F173Y/D175N/A190S/V213A/S218V/A226R (enzyme)
chain: B13 chain with L28Q, N86L, T159N
Work on B26 yielded a fB Cleavage EC50 of 100 nM.

B27: chymase C22S/P38Q/K40A/F41R/L99H/V138I/F173M/D175T/A190S/V213A/S218I/A226R (enzyme)
chain: B13 chain with L28A, N86H, Y157M, V201I
B27 was tested, and the fB Cleavage EC50 was 882 nM.

B28: chymase C22S/P38Q/K40M/F41K/L99W/V138I/F173M/A190S/V213A/S218N/A226R (enzyme)
chain: B13 chain with L28M, R29K, N86W, Y157M, T159D, V201N
For B28, the fB Cleavage EC50 was 956 nM.

Reference: US20240117334A1, “FACTOR B PROTEASES” (Vertex Pharmaceuticals Incorporated, priority 2021, published 2024)
